Consider 16 molecules from patent US20260207704A1, “STAPLED PEPTIDES AND METHODS THEREOF” (priority 2022, published 2026).

*1 amine or outer side, *2 acyl side, *3 side chain or, on linkers, in order; H or OH if unused. Bridges are numbered along the chain shown (N, C = ends). Primed or numbered codes have the meaning given here. [ ]: non-standard residue; d: D form. B5(4) = 2-amino-2-(pent-4-en-1-yl)hept-6-enoic acid, stapled through each of its two olefin groups with other olefin-containing amino acid residues, O=C(C(CCCC=[*:3])(CCCC=[*:4])N[*:1])[*:2]; PyrS2″ = (S)-3-amino-1-((pent-4-en-1-yloxy)carbonyl)pyrrolidine-3-carboxylic acid (olefin stapling residue), C=CCCCOC(=O)N1CC[C@@](N[*:1])(C(=O)[*:2])C1; PyrS2(3) = (S)-3-amino-1-((pent-4-en-1-yloxy)carbonyl)pyrrolidine-3-carboxylic acid, olefin residue, C=CCCCOC(=O)N1CC[C@@](N[*:1])(C(=O)[*:2])C1; PyrS2(5) = (S)-3-amino-1-((pent-4-en-1-yloxy)carbonyl)pyrrolidine-3-carboxylic acid, C=CCCCOC(=O)N1CC[C@@](N[*:1])(C(=O)[*:2])C1; B5″ = 2-amino-2-(pent-4-en-1-yl)hept-6-enoic acid (bis-olefin stapling residue), C=CCCCC(CCCC=C)(N[*:1])C(=O)[*:2]; B5(3) = 2-amino-2-(pent-4-en-1-yl)hept-6-enoic acid, two olefin arms, C=CCCCC(CCCC=C)(N[*:1])C(=O)[*:2]; 2F3MeF(3) = aromatic amino acid residue, Cc1cccc(C[C@H](N[*:1])C(=O)[*:2])c1F; 2F3MeF″ = aromatic residue, Cc1cccc(C[C@H](N[*:1])C(=O)[*:2])c1F; Phe(3-COOH) = N[C@@H](Cc1cccc(C(=O)O)c1)C(=O)O; 2F3MeF = Cc1cccc(C[C@H](N[*:1])C(=O)[*:2])c1F; Bta = N[C@@H](Cc1csc2ccccc12)C(=O)O; αAllylPro = C=CC[C@@]1(C(=O)O)CCCN1; BztA = aromatic amino acid residue; tBuAla = CC(C)(C)C[C@H](N)C(=O)O; 3Thi = N[C@@H](Cc1ccsc1)C(=O)O; Cha = N[C@@H](CC1CCCCC1)C(=O)O; Thr(ol) = C[C@@H](O)[C@H](N)CO; PyrS2(4) = not defined here; Nle = CCCC[C@H](N)C(=O)O; TfeGA = not defined here; AsnR = not defined here; GlnR = not defined here; PL3 = not defined here; B5 = not defined here; Aib = CC(C)(N)C(=O)O Where only a bound is given, the exact number is not on record here.

The term IC50 denotes the concentration that gives 50% inhibition.

One assay relates to DLD1 reporter. Kind of assay: reporter assay (DLD1 reporter assay). The assay is classed as cell-based. To be noted: read-out: DLD1 4% Abs IC50; DLD1 4%. An excerpt: Various technologies can be utilized for characterizing and/or assessing provided technologies (e.g., agents (e.g., various peptides), compositions, methods, etc.) in accordance with the present disclosure. As described herein, in some embodiments, a useful technology is or comprises fluorescence polarization. In some embodiments, a useful technology assesses LogP or LogD. In some embodiments, a useful technology is or comprises a CHI LogD assay. In some embodiments, a useful technology assesses solubility. In some embodiments, a useful technology is or comprises NanoBRET. In some embodiments, a useful technology is or comprises a reporter assay (e.g., DLD1 reporter assay). In some embodiments, a useful technology is or comprises alphascreen. Certain useful protocols are described in the Examples. Those skilled in the art appreciate that suitable adjustments may be made to such protocols, e.g., according to specific conditions, agents, purposes, etc.
Various technologies can be utilized to assess technologies of the present disclosure. For example, in some embodiments, solubility, LogD, interactions with targets, etc. of various agents such as stapled peptides were assessed using technologies described in WO 2022/261257 (e.g., those in its Examples). In some embodiments, solubility, shake flask LogD, and binding to beta-catenin were assessed. In some embodiments, an assay for assessing interactions, e.g., with beta-catenin, was fluorescence polarization as described in WO 2022/261257. In some embodiments, an assay was Nano-BRET target engagement assay that assessed beta-catenin/TCF4 engagement as described in WO 2022/261257. In some embodiments, an assay was a reporter assay as reported in Example 4 of WO 2022/261257. In some embodiments, an assay was a COLO320DM proliferation assay as reported in Example 4 of WO 2022/261257.
Background: A reporter such as luciferase makes a cellular process visible.

The target in assay [1] is beta-catenin (human). Kind of assay: fluorescence polarization.
beta-catenin (human), sequence (B6V8E6 146-665 limits assumed): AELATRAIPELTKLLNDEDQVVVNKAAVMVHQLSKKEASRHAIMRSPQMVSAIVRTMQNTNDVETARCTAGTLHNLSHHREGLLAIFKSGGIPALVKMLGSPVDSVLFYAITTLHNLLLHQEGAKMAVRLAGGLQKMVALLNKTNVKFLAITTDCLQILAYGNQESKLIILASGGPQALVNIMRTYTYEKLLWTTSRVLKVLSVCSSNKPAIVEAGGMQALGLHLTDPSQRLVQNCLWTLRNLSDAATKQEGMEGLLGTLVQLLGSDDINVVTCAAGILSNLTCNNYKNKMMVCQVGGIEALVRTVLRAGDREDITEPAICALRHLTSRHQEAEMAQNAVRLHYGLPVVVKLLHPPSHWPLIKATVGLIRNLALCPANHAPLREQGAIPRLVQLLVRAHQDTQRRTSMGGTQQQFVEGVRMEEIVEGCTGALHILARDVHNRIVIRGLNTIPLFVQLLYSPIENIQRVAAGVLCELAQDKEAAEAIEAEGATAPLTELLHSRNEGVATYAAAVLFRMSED
Assay [2] has as its target beta-catenin (human). Kind of assay: cell-based or functional assay.

With `CC(=O)N1CCC[C@]12CC=CCCCC1(CCCC=CCCCOC(=O)N3CC[C@@]4(C3)NC(=O)[C@H](CCCCNC(=O)CC[C@@H](C(=O)NC(C)(C)C(N)=O)NC(=O)[C@H](Cc3csc5ccccc35)NC(=O)[C@H](Cc3ccccc3C(F)(F)F)NC4=O)NC(=O)[C@H](Cc3ccccc3)NC(=O)[C@H](C)NC(=O)[C@H](C)NC(=O)[C@H](CN(CC(=O)O)CC(F)(F)F)NC(=O)[C@H](CC(=O)O)NC1=O)NC(=O)[C@H](CC(C)(C)C)NC(=O)[C@H](CC(=O)O)NC2=O` (single isomer, unassigned) [I-126, Ac-PL3-Asp-Npg-B5-Asp-TfeGA-Ala-Ala-Phe-Lys*3-PyrS2-2F3MeF-BztA-GlnR*3-Aib-NH2], in the assay with DLD1 reporter, the IC50 fell in the range of 1 to 5 µM.

B1: I-62 (peptide)
peptide: Ac-[αAllylPro]D[tBuAla][B5(3)]D[Phe(3-COOH)]AAFK[PyrS2(3)][3Thi][Bta][GlnR][Thr(ol)]
modifications: bridge 10-14; not fully specified (bridges); printed as Ac-PL3-Asp-Npg-B5-Asp-3COOHF-Ala-Ala-Phe-Lys*3-PyrS2-3Thi-BztA-GlnR*3-Throl; reading uncertain
In the case of B1, the IC50 with beta-catenin (human) [1] was < 0.05 µM. In the assay with beta-catenin (human) [2], the NanoBRET Abs IC50 (bin >3.0 uM) was < 10 µM.

B2: I-120 (peptide)
peptide: Ac-[αAllylPro]D[tBuAla][B5″]D[TfeGA][Aib]AFK[PyrS2″][2F3MeF][Bta][GlnR]A-NH2
modifications: bridge 10-14; not fully specified (bridges); reading uncertain; also: Lys*3 and GlnR*3 marked *3
With B2, the IC50 with beta-catenin (human) [1] is < 0.05 µM. Moreover, the NanoBRET Abs IC50 (bin >1.5 uM) with beta-catenin (human) [2] was < 3 µM.

B3: I-72 (peptide)
peptide: Ac-[αAllylPro]D[tBuAla][B5(3)]D[Phe(3-COOH)]TAFK[PyrS2(3)][3Thi][Bta][GlnR]A-NH2
modifications: bridge 10-14; not fully specified (bridges); printed as Ac-PL3-Asp-Npg-B5-Asp-3COOHF-Thr-Ala-Phe-Lys*3-PyrS2-3Thi-BztA-GlnR*3-Ala-NH2; reading uncertain
Take B3: the IC50 with beta-catenin (human) [1] was < 0.05 µM. In addition, the NanoBRET Abs IC50 (bin >1.5 uM) with beta-catenin (human) [2] is < 3 µM.

B4: I-73 (peptide)
peptide: XDXXDXTAFKXXXQA
modifications: not fully specified; Ac-PL3-Asp-Npg-B5-Asp-3COOHF-Thr-Ala-Phe-Lys*3-PyrS2-2F3MeF-BztA-GlnR*3-Ala-NH2
In the case of B4, in the assay with beta-catenin (human) [1], the IC50 was < 0.05 µM. In addition, the NanoBRET Abs IC50 (bin >1.5 uM) with beta-catenin (human) [2] is < 3 µM.

B5: I-1 (peptide)
peptide: Ac-[PL3]DL[B5]DDAAFK[PyrS2(4)][3Thi][Bta][GlnR]-NH2
modifications: staple 1-4; bridge 10-14; not fully specified (residue 10); printed as Ac-PL3-Asp-Leu-B5-Asp-Asp-Ala-Ala-Phe-dLys*3-PyrS2-3Thi-BztA-GlnR*3-NH2; reading uncertain; also: PyrS2 tied into a staple, partner not placed
With B5, the IC50 with beta-catenin (human) [1] was < 0.05 µM. Further, in the assay with beta-catenin (human) [2], the NanoBRET Abs IC50 was > 10 µM.

B6: I-104 (peptide)
peptide: Ac-[PL3]D[tBuAla][B5]D[Phe(3-COOH)]AAFK[PyrS2(4)][2F3MeF][Bta][GlnR]L-NH2
modifications: staple 1-4; bridge 10-14; not fully specified (residue 10); printed as Ac-PL3-Asp-Npg-B5-Asp-3COOHF-Ala-Ala-Phe-Lys*3-PyrS2-2F3MeF-BztA-GlnR*3-Leu-NH2; reading uncertain; also: PyrS2 tied into a staple, partner not placed
Regarding B6, the IC50 with beta-catenin (human) [1] is < 0.05 µM. Besides, the NanoBRET Abs IC50 (bin >1.5 uM) with beta-catenin (human) [2] is < 3 µM.

B7: I-101 (peptide)
peptide: Ac-[PL3]D[tBuAla][B5]D[Phe(3-COOH)][Cha]AFK[PyrS2(4)][2F3MeF][Bta][GlnR]A-NH2
modifications: staple 1-4; bridge 10-14; not fully specified (residue 10); printed as Ac-PL3-Asp-Npg-B5-Asp-3COOHF-Cha-Ala-Phe-Lys*3-PyrS2-2F3MeF-BztA-GlnR*3-Ala-NH2; reading uncertain; also: PyrS2 tied into a staple, partner not placed
As to B7, the IC50 in the assay with beta-catenin (human) [1] is < 0.05 µM. In addition, the NanoBRET Abs IC50 (bin >1.5 uM) in the assay with beta-catenin (human) [2] was < 3 µM.

B8: I-97 (peptide)
peptide: Ac-[PL3]D[Cha][B5]D[Phe(3-COOH)]AAFK[PyrS2″][2F3MeF(3)][BztA][GlnR]A-NH2
modifications: staple 1-4 (inferred); bridge 10-14; not fully specified (residue 10, bridges); printed as Ac-PL3-Asp-Cha-B5-Asp-3COOHF-Ala-Ala-Phe-Lys*3-PyrS2-2F3MeF-BztA-GlnR*3-Ala-NH2; reading uncertain; also: Lys10 and GlnR14 marked *3
As for B8, the IC50 with beta-catenin (human) [1] is < 0.05 µM. Besides, in the assay with beta-catenin (human) [2], the NanoBRET Abs IC50 (bin >1.5 uM) was < 3 µM.

B9: I-64 (peptide)
peptide: Ac-[αAllylPro]D[tBuAla][B5(3)]D[Phe(3-COOH)]AAFK[PyrS2(3)][3Thi][Bta][GlnR]-Prool
modifications: bridge 10-14; not fully specified (bridges); printed as Ac-PL3-Asp-Npg-B5-Asp-3COOHF-Ala-Ala-Phe-Lys*3-PyrS2-3Thi-BztA-GlnR*3-Prool; reading uncertain
Regarding B9, the IC50 with beta-catenin (human) [1] was < 0.05 µM. Also, the NanoBRET Abs IC50 (bin >1.5 uM) in the assay with beta-catenin (human) [2] is < 3 µM.

B10: I-71 (peptide)
peptide: Ac-[αAllylPro]D[tBuAla][B5(3)]D[Phe(3-COOH)][Nle]AFK[PyrS2(3)][2F3MeF″][Bta][GlnR]A-NH2
modifications: bridge 10-14; not fully specified (bridges); printed as Ac-PL3-Asp-Npg-B5-Asp-3COOHF-nLeu-Ala-Phe-Lys*3-PyrS2-2F3MeF-BztA-GlnR*3-Ala-NH2; reading uncertain
B10: the IC50 in the assay with beta-catenin (human) [1] was < 0.05 µM. Besides, the NanoBRET Abs IC50 (bin >1.5 uM) in the assay with beta-catenin (human) [2] is < 3 µM.

B11: I-63 (peptide)
peptide: Ac-[αAllylPro]D[tBuAla][B5(3)]D[Phe(3-COOH)]AAFK[PyrS2(3)][3Thi][Bta][GlnR][Thr(ol)]
modifications: bridge 10-14; not fully specified (bridges); printed as Ac-PL3-Asp-Npg-B5-Asp-3COOHF-Ala-Ala-Phe-Lys*3-PyrS2-3Thi-BztA-GlnR*3-Throl; reading uncertain
In the case of B11, the IC50 in the assay with beta-catenin (human) [1] is < 0.05 µM. The NanoBRET Abs IC50 (bin >3.0 uM) in the assay with beta-catenin (human) [2] is < 10 µM.

B12: I-68 (peptide)
peptide: Ac-[αAllylPro]D[tBuAla][B5(3)]D[Phe(3-COOH)][Aib]AFK[PyrS2(3)][2F3MeF″][Bta][GlnR]A-NH2
modifications: bridge 10-14; not fully specified (bridges); printed as Ac-PL3-Asp-Npg-B5-Asp-3COOHF-Aib-Ala-Phe-Lys*3-PyrS2-2F3MeF-BztA-GlnR*3-Ala-NH2; reading uncertain
On to B12, for which, in the assay with beta-catenin (human) [1], the IC50 is < 0.05 µM. Further, in the assay with beta-catenin (human) [2], the NanoBRET Abs IC50 (bin >1.5 uM) is < 3 µM.

B13: I-106 (peptide)
peptide: Ac-[PL3]D[Cha][B5]D[Phe(3-COOH)]AAFK[PyrS2(4)][2F3MeF][Bta][GlnR]L-NH2
modifications: staple 1-4; bridge 10-14; not fully specified (residue 10); printed as Ac-PL3-Asp-Cha-B5-Asp-3COOHF-Ala-Ala-Phe-Lys*3-PyrS2-2F3MeF-BztA-GlnR*3-Leu-NH2; reading uncertain; also: PyrS2 tied into a staple, partner not placed
As to B13, the IC50 in the assay with beta-catenin (human) [1] was < 0.05 µM. Besides, the NanoBRET Abs IC50 (bin >1.5 uM) in the assay with beta-catenin (human) [2] was < 3 µM.

B14: I-61 (peptide)
peptide: Ac-[αAllylPro]D[tBuAla][B5(3)]D[Phe(3-COOH)]QAFK[PyrS2(3)][2F3MeF″][Bta][AsnR]A-NH2
modifications: bridge 10-14; not fully specified (bridges); printed as Ac-PL3-Asp-Npg-B5-Asp-3COOHF-Gln-Ala-Phe-Lys*3-PyrS2-2F3MeF-BztA-AsnR*3-Ala-NH2; reading uncertain
Take B14: the IC50 in the assay with beta-catenin (human) [1] was < 0.05 µM. For the same molecule, in the assay with beta-catenin (human) [2], the NanoBRET Abs IC50 is > 10 µM.

B15: I-121 (peptide)
peptide: Ac-[αAllylPro]D[tBuAla][B5(4)]D[TfeGA][Aib]AFK[PyrS2(5)][2F3MeF][Bta][GlnR]A-NH2
modifications: bridge 10-14; not fully specified (bridges); reading uncertain; also: Lys*3 and GlnR*3 marked *3
Consider B15, for which the IC50 with beta-catenin (human) [1] is < 0.05 µM. Also, the NanoBRET Abs IC50 (bin >1.5 uM) with beta-catenin (human) [2] was < 3 µM.
